Results reported in paper PMC3782484.

Legend:
[1] = molecular target: 6pGST, recombinant FbsA fragment 6p (five repeats) fused to GST (Streptococcus agalactiae strain COH1); assay: SPR; BIAcore X; 5pGST or 6pGST (500 nM) captured on immobilized goat anti-GST antibody, GST alone in the reference cell; human Fng flowed at 2.92 nM to 750 nM, 20 µl/min; equilibrium analysis
[2] = molecular target: 5pGST, recombinant FbsA fragment 5p (one repeat) fused to GST (Streptococcus agalactiae strain COH1); assay: as above
[3] = molecular target: 6pGST, recombinant FbsA fragment 6p (five repeats) fused to GST (Streptococcus agalactiae strain COH1); assay: ELISA; 5pGST or 6pGST (500 ng/well) coated overnight at 4°C in 0.1 M carbonate buffer, blocked with 2% BSA, increasing amounts of human Fng; detected with mouse anti-human Fng IgG and peroxidase-conjugated rabbit anti-mouse IgG
[4] = molecular target: 5pGST, recombinant FbsA fragment 5p (one repeat) fused to GST (Streptococcus agalactiae strain COH1); assay: as above

Human fibrinogen (from UniProt P02671 36-866; P02675 45-491; P02679 27-453) (complex)
Kd [1]: 23 nM
Kd [2]: 27.5 nM
EC50 [3]: 63 nM
EC50 [4]: 31.2 nM
